Source: patent US20260055182A1 (CIS BIOPHARMA, published 2026)
Where a chain is given by its changes, count along the chain named. Numbers in names are those of the source.

B1: CE7-variant7-AG (antibody, human IgG1, kappa, L234A L235A, N297A)
heavy: QVQLVQSGAEVKKPGASVKVSCKASGYTFTGYWMHWVRQAPGQGLEWIGEINPSNGRTNYNERFQGRVTLTVDKSISTAYMELSRLRSDDTAVYYCARDYYGTSYNFDYWGQGTLVTVSSASTKGPSVFPLAPSSKSTSGGTAALGCLVKDYFPEPVTVSWNSGALTSGVHTFPAVLQSSGLYSLSSVVTVPSSSLGTQTYICNVNHKPSNTKVDKKVEPKSCDKTHTCPPCPAPEAAGGPSVFLFPPKPKDTLMISRTPEVTCVVVDVSHEDPEVKFNWYVDGVEVHNAKTKPREEQYASTYRVVSVLTVLHQDWLNGKEYKCKVSNKALPASIEKTISKAKGQPREPQVYTLPPSREEMTKNQVSLTCLVKGFYPSDIAVEWESNGQPENNYKTTPPVLDSDGSFFLYSKLTVDKSRWQQGNVFSCSVMHEALHNHYTQKSLSLSPGK
light: DIQMTQSPSSLSASVGDRVTITCKANEDINNRLAWYQQKPGKAPKLLISGATNLVTGVPSRFSGSGSGKDYTLTISSLQPEDFATYYCQQYWSTPFTFGQGTKLEIKRTVAAPSVFIFPPSDEQLKSGTASVVCLLNNFYPREAKVQWKVDNALQSGNSQESVTEQDSKDSTYSLSSTLTLSKADYEKHKVYACEVTHQGLSSPVTKSFNRGEC
notes: CE7-1-2-VHB (L234A L235A P331S N297A) + CE7-1-NL1-VLA, aglycosylated human IgG1 kappa; also called CE7-varant7-AG; huCE7 variant 7AG
B2: CE7-variant28 (antibody, V domains shown)
VH: QVQLVQSGAEVKKPGASVKVSCKASGYTFTGYWMHWVRQAPGQGLEWMGEINPSNGRTNYNEKFQGRVTLTVDKSISTAYMELSRLRSDDTAVYYCARDYYGTSYNFDYWGQGTLVTVSS
VL: DIQMTQSPSSLSASVGDRVTITCRASQGINNRLAWYQQKPGKAPKLLISGASNLVSGVPSRFSGSGSGKDYTLTISSLQPEDFATYYCQQYWSTPFTFGQGTKLEIKR
notes: CE7-1-2-VHD + CE7-1-NL1-VLD; human IgG1 kappa, L234A L235A P331S N297A (aglycosylated); also called humanized variant 28
B3: CE7-variant26 (antibody, V domains shown)
VH: B2 VH
VL: B2 VL with S26N, Q27E, G28D, S52T, S56T
notes: CE7-1-2-VHD + CE7-1-NL1-VLB; human IgG1 kappa, L234A L235A P331S N297A (aglycosylated); also called humanized variant 26
B4: huCE7 variant LV38 (antibody, human IgG1, kappa, L234A L235A, N297A)
heavy: B1 heavy with W33F, G56A, L312D
light: B1 light with N31A, W92Y
notes: Variant 7AG with HC WH33F, GH55A, LH309D and LC NL31A, WL92Y; also called huCE7-variant38
B5: huCE7 variant LV42 (antibody, human IgG1, kappa, L234A L235A, N297A)
heavy: B1 heavy with T310P
light: B1 light
notes: Variant 7AG with HC TH307P; also called huCE7-variant42
B6: CE7-variant7 (antibody)
heavy: B1 heavy with A300N
light: B1 light
notes: also called CE7-12-VHB-1NL1-VLA; humanized variant 7
B7: chimeric cHCE7 (antibody, V domains shown)
VH: QVQLQQPGAELVKPGASVKLSCKASGYTFTGYWMHWVKQRPGHGLEWIGEINPSNGRTNYNERFKSKATLTVDKSSTTAFMQLSGLTSEDSAVYFCARDYYGTSYNFDYWGQGTTLTVSS
VL: DIQMTQSSSSFSVSLGDRVTITCKANEDINNRLAWYQQTPGNSPRLLISGATNLVTGVPSRFSGSGSGKDYTLTITSLQAEDFATYYCQQYWSTPFTFGSGTELEIK
notes: Control antibody; also called chimeric HCE7; CE7 chimeric antibody
B8: Deglycosylated cHCE7 (antibody, V domains shown)
VH: B7 VH
VL: B7 VL
modifications: deglycosylated (so in the source); site and method not stated for this sample
notes: also called cHCE7 degly; cHCE7 deglycosylated
B9: CE7-variant18-AG (antibody)
heavy: QVQLQQWGAGLLKPSETLSLTCAAYGYTFTGYWMHWIRQPPGKGLEWIGEINPSNGRTNYNERLKSRVTLSVDKSKNQASLKLSSVTAADTAVYFCARDYYGTSYNFDYWGQGTLVTVSSASTKGPSVFPLAPSSKSTSGGTAALGCLVKDYFPEPVTVSWNSGALTSGVHTFPAVLQSSGLYSLSSVVTVPSSSLGTQTYICNVNHKPSNTKVDKKVEPKSCDKTHTCPPCPAPEAAGGPSVFLFPPKPKDTLMISRTPEVTCVVVDVSHEDPEVKFNWYVDGVEVHNAKTKPREEQYASTYRVVSVLTVLHQDWLNGKEYKCKVSNKALPASIEKTISKAKGQPREPQVYTLPPSREEMTKNQVSLTCLVKGFYPSDIAVEWESNGQPENNYKTTPPVLDSDGSFFLYSKLTVDKSRWQQGNVFSCSVMHEALHNHYTQKSLSLSPGK
light: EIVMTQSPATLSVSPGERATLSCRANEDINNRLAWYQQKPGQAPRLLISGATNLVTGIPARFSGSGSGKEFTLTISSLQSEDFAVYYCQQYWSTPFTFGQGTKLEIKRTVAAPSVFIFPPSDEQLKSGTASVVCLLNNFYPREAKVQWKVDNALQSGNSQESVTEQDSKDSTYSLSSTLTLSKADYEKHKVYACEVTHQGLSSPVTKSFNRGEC
notes: CE7-4-34-VHA (L234A L235A P331S N297A) + CE7-3-15-VLB, aglycosylated human IgG1 kappa; N297 of IgG1 numbering is residue 319 of the entry (QYNST); also called CE7-varant18-AG

How the values were obtained:
[1] = target: T1, L1-CAM recombinant protein (His Tag), human (human, UniProt P32004 20-1120); assay: ELISA, human L1-CAM coated at 2 µg/ml
T1 construct: Bought protein; also called CD171; human L1-CAM; not shown: His tag
T1 sequence (P32004 20-1120 limits assumed): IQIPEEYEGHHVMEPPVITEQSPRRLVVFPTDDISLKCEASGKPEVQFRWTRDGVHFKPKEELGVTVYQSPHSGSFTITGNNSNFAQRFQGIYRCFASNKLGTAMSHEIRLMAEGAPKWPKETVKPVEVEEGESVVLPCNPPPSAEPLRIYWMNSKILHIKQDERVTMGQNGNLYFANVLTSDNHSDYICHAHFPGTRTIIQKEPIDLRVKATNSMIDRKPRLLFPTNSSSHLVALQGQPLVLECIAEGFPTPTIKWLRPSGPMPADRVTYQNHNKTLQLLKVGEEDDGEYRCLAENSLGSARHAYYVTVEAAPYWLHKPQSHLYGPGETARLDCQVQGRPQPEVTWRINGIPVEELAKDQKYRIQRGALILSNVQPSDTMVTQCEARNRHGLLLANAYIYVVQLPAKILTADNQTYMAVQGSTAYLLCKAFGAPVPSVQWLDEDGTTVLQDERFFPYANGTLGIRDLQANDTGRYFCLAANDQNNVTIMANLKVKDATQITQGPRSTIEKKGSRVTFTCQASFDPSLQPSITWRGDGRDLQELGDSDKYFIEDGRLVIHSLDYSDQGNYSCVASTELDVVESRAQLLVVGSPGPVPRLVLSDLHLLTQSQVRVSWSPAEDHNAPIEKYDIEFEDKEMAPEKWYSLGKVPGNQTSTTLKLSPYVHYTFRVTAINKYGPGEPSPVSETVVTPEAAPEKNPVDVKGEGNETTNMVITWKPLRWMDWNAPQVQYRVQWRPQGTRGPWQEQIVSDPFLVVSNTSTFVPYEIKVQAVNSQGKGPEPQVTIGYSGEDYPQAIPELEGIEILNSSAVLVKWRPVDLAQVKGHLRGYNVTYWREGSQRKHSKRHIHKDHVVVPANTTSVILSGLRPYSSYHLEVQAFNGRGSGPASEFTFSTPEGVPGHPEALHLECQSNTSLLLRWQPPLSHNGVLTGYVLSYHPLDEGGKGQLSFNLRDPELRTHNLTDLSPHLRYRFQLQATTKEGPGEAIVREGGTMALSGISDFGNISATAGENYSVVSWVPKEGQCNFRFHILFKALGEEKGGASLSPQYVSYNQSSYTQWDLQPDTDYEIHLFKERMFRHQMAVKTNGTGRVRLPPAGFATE

[2] = target: T1, L1-CAM recombinant protein (His Tag), …; assay: SPR (Biacore 8K) as in Example 6, new batch of L1-CAM on the chip
Method: (§1) In the SPR experiment, antigen is immobilized on sensor chip and solutions containing antibody at various concentrations are flown over the antigen. real time measurement of kinetics parameters is performed, including their on/off rates (ka and kd). Based thereon, binding affinity constant KD is determined.

[3] = target: T1, L1-CAM recombinant protein (His Tag), …; assay: SPR (Biacore 8K); L1-CAM immobilised on CM5 chip, antibody as analyte
Method: as §1

[4] = target: T1, L1-CAM recombinant protein (His Tag), …; assay: GCI (Creoptix WAVEdelta); antibody captured on protein A/G, L1-CAM as analyte, 1:1 model
[5] = target: T1, L1-CAM recombinant protein (His Tag), …; assay: SPR (Biacore 8K); L1-CAM immobilised on CM5 chip, antibody as analyte; remark: listed apart in the source
Method: as §1

[6] = target: T1, L1-CAM recombinant protein (His Tag), …; assay: ELISA, human L1-CAM coated at 2 µg/ml; first of two values in the cell; first of two values in the cell
[7] = target: T1, L1-CAM recombinant protein (His Tag), …; assay: ELISA, human L1-CAM coated at 2 µg/ml; second of two values in the cell; second of two values in the cell
[8] = target: T1, L1-CAM recombinant protein (His Tag), …; assay: ELISA, human L1-CAM coated at 2 µg/ml; first of two values in the cell
[9] = target: T1, L1-CAM recombinant protein (His Tag), …; assay: ELISA, human L1-CAM coated at 2 µg/ml; second of two values in the cell

Row | Binder | EC50 [1] [mg/L] | kon [2] [M⁻¹ s⁻¹] | Kd [3] [nM] | koff [3] [s⁻¹] | kon [3] [M⁻¹ s⁻¹] | Kd [5] [nM] | koff [5] [s⁻¹] | kon [5] [M⁻¹ s⁻¹] | further results
1 | B1 | 0.0258 | 1.48e+06 | < 0.00971 | < 1e-05 | 1.03e+06 | – | – | – | Kd [2]: 0.0238 nM; koff [2]: 3.53e-05 s⁻¹; Kd [4]: ~4 nM
2 | B2 | 0.0701 | – | – | – | – | 0.046 | 3.62e-05 | 787000 | –
3 | B3 | 0.0127 | – | – | – | – | 0.000186 | 1.65e-07 | 891000 | –
4 | B4 | – | 121000 | – | – | – | – | – | – | Kd [2]: 0.268 nM; koff [2]: 3.23e-05 s⁻¹
5 | B5 | – | 1.92e+06 | – | – | – | – | – | – | –
6 | B6 | – | – | – | – | – | 0.000896 | 5.51e-07 | 615000 | EC50 [6]: 0.00958 mg/L; EC50 [7]: 0.0327 mg/L
7 | B7 | – | – | 0.0519 | 4.39e-05 | 845000 | – | – | – | EC50 [8]: 0.00663 mg/L; EC50 [9]: 0.0232 mg/L
8 | B8 | 0.0131 | – | 0.12 | 9.59e-05 | 806000 | – | – | – | Kd [4]: ~4 nM
9 | B9 | – | – | 0.00124 | 1.35e-06 | 1.09e+06 | – | – | – | –
